The target of assay [1] is b122a displayed on the surface of yeast EBY100. Briefly: flow cytometry of yeast EBY100 displaying b122a, b12 detected with anti-human-PE.
For assay [2], the target named is IgG b12, broadly neutralizing anti-HIV-1 gp120 antibody. Briefly: SPR, Biacore 2000, 25 C, IgG b12 immobilized on CM5 chip (900 RU).

“IgG b12, broadly neutralizing anti-HIV-1 gp120 antibody” gave a concentration of b12 which showed appreciable binding in assay [1] of 9 µM. In turn, Core gp120 came in with a Kd in assay [2] of 22 nM. As for Wt gp120 (full-length HIV-1 gp120), the Kd in assay [2] stood at 17 nM.

For the origin of these results see patent publication US20110217338A1.
